Reference: publication PMC9677513

Assays:
[1] = molecular target: Nano-CRAF^CAT (human) (UniProt P04049); test: FRET or BRET
[2] = molecular target: E275K-BRAF^FL-RLuc8 (human) (UniProt P15056); test: FRET or BRET

| Substance | increase of BRET signal over CRAF^REG [1] | increase of BRETmax over WT [2] |
| --- | --- | --- |
| CRAF^REG construct containing the BRAF-CRD, Halo-tagged (domain or fragment) | 40% |  |
| Venus-KRAS^G12V (from UniProt P01116 1-189) (natural protein) |  | 15% |
